Assay results reported in patent publication US20160279215A1, “NOVEL PEPTIDES AND COMBINATION OF PEPTIDES FOR USE IN IMMUNOTHERAPY AGAINST VARIOUS TUMORS” (immatics biotechnologies GmbH, priority 2015, published 2016).

target: T1, HLA-A*02:01 (human); assay: UV ligand-exchange ELISA (anti-b2m); +++ = exchange yield >=50
T1 construct: MHC monomers captured on streptavidin plates; the UV-sensitive peptide is cleaved and exchanged with the test peptide; also called peptide-receptive MHC molecules; MHC class I
Text: Candidate peptides for T cell based therapies according to the present invention were further tested for their MHC binding capacity (affinity). The individual peptide-MHC complexes were produced by UV-ligand exchange, where a UV-sensitive peptide is cleaved upon UV-irradiation, and exchanged with the peptide of interest as analyzed. Only peptide candidates that can effectively bind and stabilize the peptide-receptive MHC molecules prevent dissociation of the MHC complexes. To determine the yield of the exchange reaction, an ELISA was performed based on the detection of the light chain (β2m) of stabilized MHC complexes. The assay was performed as generally described in Rodenko et al. (Rodenko et al., 2006).
96 well MAXISorp plates (NUNC) were coated over night with 2 ug/ml streptavidin in PBS at room temperature, washed 4× and blocked for 1 h at 37° C. in 2% BSA containing blocking buffer. Refolded HLA-A*02:01/MLA-001 monomers served as standards, covering the range of 15-500 ng/ml. Peptide-MHC monomers of the UV-exchange reaction were diluted 100 fold in blocking buffer. Samples were incubated for 1 h at 37° C., washed four times, incubated with 2 ug/ml HRP conjugated anti-β2m for 1 h at 37° C., washed again and detected with TMB solution that is stopped with […]. Absorption was measured at 450 nm. Candidate peptides that show a high exchange yield (preferably higher than 50%, most preferred higher than 75%) are generally preferred for a generation and production of antibodies or fragments thereof, and/or T cell receptors or fragments thereof, as they show sufficient avidity to the MHC molecules and prevent dissociation of the MHC complexes.

peptide exchange yield [%]	Binder
50 to 75	VLMQDSRLYL
50 to 75	SEWGSPHAAVP
50 to 75	YLMDDFSSL (also called COL6A3-015)
50 to 75	SLLELDGINLRL
50 to 75	RLIDIYKNV
50 to 75	VIIKGLEEITV
50 to 75	TLQEWLTEV
50 to 75	SLSTELFKV
50 to 75	VIFEGEPMYL (also called HORMAD1-001)
50 to 75	SLLDYEVSI
50 to 75	SLADLSLLL
50 to 75	SLAGNLQEL
50 to 75	SLFESLEYL (also called ZFP42-001)
50 to 75	SLLDLVQSL
50 to 75	RLYEEEIRI
50 to 75	RVIDDSLVVGV
50 to 75	YLDPLWHQL
50 to 75	VLLDMVHSL
50 to 75	YLYQILQGI
50 to 75	YLILSSHQL
50 to 75	VIIQNLPAL
50 to 75	TLGEIIKGV

The next lines start with the binder.

Binder	peptide exchange yield [%]
ILAVDGVLSV	50 to 75
AAIEIFEKV	50 to 75
GLAGDNIYL	50 to 75
FLPQPVPLSV	50 to 75
MLWESIMRV	50 to 75
FLNDIFERI	50 to 75
MLIIRVPSV	50 to 75
ALSELERVL	50 to 75
LLGDSSFFL	50 to 75
KQFEGTVEI	50 to 75
NVAEIVIHI	50 to 75
KLQEEIPVL	50 to 75
LLFDWSGTGRADA	50 to 75
ALINVLNAL	50 to 75
LLWGHPRVALA (also called MXRA5-003)	50 to 75
ALHPVQFYL	50 to 75
GLLGNLLTSL	50 to 75
LLTTVLINA	50 to 75
GLLSALENV	50 to 75
IMPTFDLTKV	50 to 75
LLWAPTAQA	50 to 75
LLWPSSVPA	50 to 75
ALLEQTGDMSL	50 to 75

Binder	peptide exchange yield [%]
FLMKNSDLYGA	50 to 75
ALFHMNILL	50 to 75
LLWGNLPEI	50 to 75
KLFETVEEL	50 to 75
KVWSDVTPL (also called MMP-002)	50 to 75
LMQDSRLYL	50 to 75
ALLSPLSLA	50 to 75
KLVELEHTL (also called CT83-001)	50 to 75
ALSYILPYL	50 to 75
QLGPVPVTI	50 to 75
ALAGIVTNV	50 to 75
FLISQTPLL	50 to 75
ALADLSVAV	50 to 75
ALFETLIQL	50 to 75
LLDDIFIRL	50 to 75
LVVDEGSLVSV (also called …)	50 to 75
LMYPYIYHV	50 to 75
GLQDGFQITV	50 to 75
ALEEKLENV	50 to 75
KLLAVIHEL (also called RAD54B-002)	50 to 75
KMSELQTYV	50 to 75
KLLNMIFSI	50 to 75
